Reference: article PMC6238398, “The crystal structure of Staufen1 in complex with a physiological RNA sheds light on substrate selectivity” (Life Science Alliance, 2018)

Key:
[1] = target: the molecule itself; experiment: SEC + SEC-MALS; apo proteins on Superdex 200 Increase 10/300 GL with MALLS detector; 20 mM Tris-HCl pH 7.5, 150 mM KCl, RT; 200 ug FL, 350 ug hStau1 182-577 injected
[2] = target: hStau1 dsRBD3-4 linker charge mutant (Homo sapiens, UniProt O95793 182-360, K266A;K267E;K268A;K270A); experiment: fluorescence anisotropy; FA: 10 nM 5'-FAM RNA, 20 mM Hepes pH 7.5, 150 mM KCl, RT (19-21 C); EMSA: 1 uM RNA, same buffer, 45 min on ice; settings: protein: recombinant; label: 5'-6-FAM on sense strand; blunt, two G-U wobbles
[3] = target: hStau1 dsRBD3-4 short linker (Homo sapiens, UniProt O95793 182-253+=GSSGSGSS+284-360, internal_change); experiment: as above; settings: protein: recombinant; label: 5'-6-FAM on sense strand; blunt, two G-U wobbles
GST-hStau1 dsRBD4 = GST-hStau1 dsRBD4 (Homo sapiens, UniProt O95793 284-358); experiment: as above; settings: protein: recombinant; tags: N-terminal GST; label: 5'-6-FAM on sense strand; blunt, two G-U wobbles
GST-hStau1 dsRBD3 = GST-hStau1 dsRBD3 (Homo sapiens, UniProt O95793 182-255); experiment: as above; settings: protein: recombinant; tags: N-terminal GST; label: 5'-6-FAM on sense strand; blunt, two G-U wobbles
GST-hStau1 dsRBD3-4 = GST-hStau1 dsRBD3-4 (Homo sapiens, UniProt O95793 182-360); experiment: as above; settings: protein: recombinant; tags: N-terminal GST; label: 5'-6-FAM on sense strand; blunt, two G-U wobbles
hStau1 dsRBD3-4 = hStau1 dsRBD3-4 (Homo sapiens, UniProt O95793 182-360); experiment: as above; settings: protein: recombinant; tags: untagged; chain copies: 2; label: 5'-6-FAM on sense strand; blunt, two G-U wobbles
[4] = target: hStau1 deltaN (dsRBD2 removed) (Homo sapiens, UniProt O95793 182-577); experiment: as above; settings: protein: recombinant; label: 5'-6-FAM on sense strand; blunt, two G-U wobbles
[5] = target: hStau1 deltaC (SSM and dsRBD5 removed) (Homo sapiens, UniProt O95793 1-360); experiment: as above; settings: protein: recombinant; label: 5'-6-FAM on sense strand; blunt, two G-U wobbles
hStau1 FL [6] = target: T1, hStau1 FL (Homo sapiens, UniProt O95793 1-577); experiment: as above; settings: protein: recombinant, tags: tag removed or His/GST not specified, chain copies: 2
[7] = target: hStau1 dsRBD3 backbone mutant (Homo sapiens, UniProt O95793 182-360, H212A;K214A;K234E;K235A;K238A); experiment: as above; settings: protein: recombinant; label: 5'-6-FAM on sense strand; blunt, two G-U wobbles
[8] = target: hStau1 dsRBD4 backbone mutant (Homo sapiens, UniProt O95793 182-360, R315A;R317A;K337E;K338A;K341A); experiment: as above; settings: protein: recombinant; label: 5'-6-FAM on sense strand; blunt, two G-U wobbles
[9] = target: hStau1 dsRBD3-4 interface mutant (Homo sapiens, UniProt O95793 182-360, N197A;R342A); experiment: fluorescence anisotropy; no effect on affinity vs wt; FA: 10 nM 5'-FAM RNA, 20 mM Hepes pH 7.5, 150 mM KCl, RT (19-21 C); EMSA: 1 uM RNA, same buffer, 45 min on ice; settings: protein: recombinant; label: 5'-6-FAM on sense strand; blunt, two G-U wobbles
hStau1 dsRBD3-4 interface mutant, sequence (O95793 182-360 N197A/R342A): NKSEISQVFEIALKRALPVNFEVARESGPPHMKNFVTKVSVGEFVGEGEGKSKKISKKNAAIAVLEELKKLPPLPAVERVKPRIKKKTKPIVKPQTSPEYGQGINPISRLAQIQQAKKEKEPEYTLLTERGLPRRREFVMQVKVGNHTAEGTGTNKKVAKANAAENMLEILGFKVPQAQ

[10] = target: hStau1 base-contact mutant (Homo sapiens, UniProt O95793 182-360, S187A;P211A;Q293A); experiment: fluorescence anisotropy; FA: 10 nM 5'-FAM RNA, 20 mM Hepes pH 7.5, 150 mM KCl, RT (19-21 C); EMSA: 1 uM RNA, same buffer, 45 min on ice; settings: protein: recombinant, blunt
hStau1 base-contact mutant, sequence (O95793 182-360 S187A/P211A/Q293A): as the sequence (O95793 182-360 N197A/R342A) above, with S6A, A16N, P30A, Q112A, A161R counted along it

hStau1 FL [11] = target: T1, hStau1 FL; experiment: as above; settings: protein: recombinant; tags: tag removed or His/GST not specified; chain copies: 2; label: 5'-6-FAM; blunt
dStau S581A Q718A = target: T2, dStau S581A Q718A (Drosophila melanogaster, UniProt P25159 570-786, S581A;Q718A); experiment: as above; settings: protein: recombinant; label: 5'-6-FAM; hairpin
T2 sequence: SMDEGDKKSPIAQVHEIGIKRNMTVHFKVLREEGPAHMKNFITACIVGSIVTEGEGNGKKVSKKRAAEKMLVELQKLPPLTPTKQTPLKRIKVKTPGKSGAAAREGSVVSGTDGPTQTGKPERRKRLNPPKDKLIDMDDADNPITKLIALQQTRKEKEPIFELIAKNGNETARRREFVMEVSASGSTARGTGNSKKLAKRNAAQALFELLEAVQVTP

[12] = target: T3, dStau dsRBD3 backbone mutant (Drosophila melanogaster, UniProt P25159 570-786, H606A;K608A;K628E;K629A); experiment: as above; settings: protein: recombinant; label: 5'-6-FAM; hairpin
T3 sequence: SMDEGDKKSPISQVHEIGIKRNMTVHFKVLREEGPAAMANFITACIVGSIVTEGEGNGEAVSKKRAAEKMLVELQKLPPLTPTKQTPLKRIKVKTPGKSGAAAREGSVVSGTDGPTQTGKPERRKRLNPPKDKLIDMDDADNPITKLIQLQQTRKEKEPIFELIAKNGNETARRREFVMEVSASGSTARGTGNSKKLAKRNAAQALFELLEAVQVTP

[13] = target: T4, dStau dsRBD4 backbone mutant (Drosophila melanogaster, UniProt P25159 570-786, R742A;R744A;K764E;K765A;K768A); experiment: as above; settings: protein: recombinant; label: 5'-6-FAM; hairpin
T4 sequence: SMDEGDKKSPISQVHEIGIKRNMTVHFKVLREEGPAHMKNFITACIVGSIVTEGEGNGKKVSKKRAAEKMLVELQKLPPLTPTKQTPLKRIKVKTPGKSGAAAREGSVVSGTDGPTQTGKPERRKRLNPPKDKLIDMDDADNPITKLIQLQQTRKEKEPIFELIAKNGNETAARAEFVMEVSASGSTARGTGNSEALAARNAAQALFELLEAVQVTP

B1: human Staufen1 full-length (natural protein, UniProt O95793 1-577, looked up)
chain: MSQVQVQVQNPSAALSGSQILNKNQSLLSQPLMSIPSTTSSLPSENAGRPIQNSALPSASITSTSAAAESITPTVELNALCMKLGKKPMYKPVDPYSRMQSTYNYNMRGGAYPPRYFYPFPVPPLLYQVELSVGGQQFNGKGKTRQAAKHDAAAKALRILQNEPLPERLEVNGRESEEENLNKSEISQVFEIALKRNLPVNFEVARESGPPHMKNFVTKVSVGEFVGEGEGKSKKISKKNAAIAVLEELKKLPPLPAVERVKPRIKKKTKPIVKPQTSPEYGQGINPISRLAQIQQAKKEKEPEYTLLTERGLPRRREFVMQVKVGNHTAEGTGTNKKVAKRNAAENMLEILGFKVPQAQPTKPALKSEEKTPIKKPGDGRKVTFFEPGSGDENGTSNKEDEFRMPYLSHQQLPAGILPMVPEVAQAVGVSQGHHTKDFTRAAPNPAKATVTAMIARELLYGGTSPTAETILKNNISSGHVPHGPLTRPSEQLDYLSRVQGFQVEYKDFPKNNKNEFVSLINCSSQPPLISHGIGKDVESCHDMAALNILKLLSELDQQSTEMPRTGNGPMSVCGRC
notes: human Staufen1 (hStau1), GenBank AAD17531.1, codon optimized; full-length protein; the truncation 182-577 implies a length of 577 aa; Constructs carried either an N-terminal GST tag or a His tag; The His tag was removed by TEV; the GST tag was either kept (elution with glutathione) or cleaved by TEV; also called hStau1 FL; hStau1
B1 was tested, and the “stoichiometry N” value [1] was 2.

B2: hStau1 aa 182-577 (N-terminal deletion removing dsRBD2) (domain or fragment, human, UniProt O95793 182-577, looked up)
chain: NKSEISQVFEIALKRNLPVNFEVARESGPPHMKNFVTKVSVGEFVGEGEGKSKKISKKNAAIAVLEELKKLPPLPAVERVKPRIKKKTKPIVKPQTSPEYGQGINPISRLAQIQQAKKEKEPEYTLLTERGLPRRREFVMQVKVGNHTAEGTGTNKKVAKRNAAENMLEILGFKVPQAQPTKPALKSEEKTPIKKPGDGRKVTFFEPGSGDENGTSNKEDEFRMPYLSHQQLPAGILPMVPEVAQAVGVSQGHHTKDFTRAAPNPAKATVTAMIARELLYGGTSPTAETILKNNISSGHVPHGPLTRPSEQLDYLSRVQGFQVEYKDFPKNNKNEFVSLINCSSQPPLISHGIGKDVESCHDMAALNILKLLSELDQQSTEMPRTGNGPMSVCGRC
notes: human Staufen1 (hStau1), GenBank AAD17531.1, aa 182-577 (dsRBD3, dsRBD4, TBD, SSM, dsRBD5); GST was kept or cleaved; also called hStau1^182-577
B2 was tested, and the “stoichiometry N” value [1] was 2.

B3: ARF1 SBS (dsRNA)
RNA 1: UGAGUGCCAGAAGCUGCCUC
RNA 2: GAGGCAGUUUCUGGUACUCA
B3 was tested, and the binding signal [2] was ~3 fold reduction vs wt, the binding signal [3] was ~8 fold reduction vs wt and the binding signal (GST-hStau1 dsRBD4) was ~1000 fold reduction vs tandem dsRBD3-4. For the same binder, the binding signal (GST-hStau1 dsRBD3) was ~10 fold reduction vs tandem dsRBD3-4, the Kd (GST-hStau1 dsRBD3-4) was 9 ± 2 nM and the Kd (hStau1 dsRBD3-4) was 14 ± 4 nM. It also gave a Kd [4] of 9 ± 3 nM, a Kd [5] of 10 ± 2 nM and a Kd (hStau1 FL [6]; label: 5'-6-FAM on sense strand, blunt, two G-U wobbles) of 6 ± 1 nM. The binding signal [7] was ~8 fold reduction vs wt, the binding signal [8] was ~4.5 fold reduction vs wt and the binding result [9] was “binds”. It also gave a binding signal ([10]; label: 5'-6-FAM on sense strand, two G-U wobbles) of ~3 fold reduction vs wt.

Binder UGAGUGCCAGAAGCUGCCUC (ssRNA) [ssARF1 (sense strand)] has a Kd (hStau1 FL [6]; label: 5'-6-FAM, single strand) of 96 ± 27 nM.

B4: dsAU (dsRNA)
RNA 1: UAUUAUAUAAAUUAUAAAAU
RNA 2: AUUUUAUAAUUUAUAUAAUA
For B4, the binding signal (hStau1 FL [11]) was ~4 fold reduction vs ARF1 SBS and the binding signal ([10]; label: 5'-6-FAM) was ~1.5 fold reduction vs wt on dsAU.

B5: bcd III (structured_RNA)
RNA: CGCUAUUCGCCUUAGAUGUAUCUGGGUGGCUGCUCCACUAAAGCCCGGGAAUAUGCAACCAGUUACAUUUGAGGCCAUUUGGGCUUAAGCG
B5 was tested, and the binding signal (dStau S581A Q718A) was ~3.5 fold reduction vs wt, the binding signal [12] was ~10 fold reduction vs wt (almost) and the binding signal [13] was < 3 fold reduction vs wt.
